Experimental data reported in patent publication US20150252117A1 (Genentech, published 2015).
Values belong to the binder of their own block, whether it stands above or below them.

Experiments:
Murine Jag1-DSL-EGF1-4 [1] = target: T1, Murine Jag1-DSL-EGF1-4 (mouse, UniProt Q9QXX0 34-377); experiment: ELISA (screening, FIG. 8)
T1 construct: also called murine Jagged1; mouse Jagged1

Human Jag1-DSL-EGF1-4 [2] = target: T2, Human Jag1-DSL-EGF1-4 (human, UniProt P78504 34-377); experiment: SPR (BIAcore-3000), IgG captured, Jag DSL-EGF1-4 as analyte, 25 C
T2 construct: Secreted protein from BEVS cells; also called human Jagged1; hJag1; not shown: TEV protease cleavage site and 6-His tag at the C-terminus

Murine Jag2-DSL-EGF1-4 [3] = target: T3, Murine Jag2-DSL-EGF1-4 (mouse, UniProt Q9QYE5 27-388); experiment: SPR (BIAcore-3000), IgG captured, Jag DSL-EGF1-4 as analyte
T3 construct: also called murine Jagged2; Mouse Jag2
T3 sequence: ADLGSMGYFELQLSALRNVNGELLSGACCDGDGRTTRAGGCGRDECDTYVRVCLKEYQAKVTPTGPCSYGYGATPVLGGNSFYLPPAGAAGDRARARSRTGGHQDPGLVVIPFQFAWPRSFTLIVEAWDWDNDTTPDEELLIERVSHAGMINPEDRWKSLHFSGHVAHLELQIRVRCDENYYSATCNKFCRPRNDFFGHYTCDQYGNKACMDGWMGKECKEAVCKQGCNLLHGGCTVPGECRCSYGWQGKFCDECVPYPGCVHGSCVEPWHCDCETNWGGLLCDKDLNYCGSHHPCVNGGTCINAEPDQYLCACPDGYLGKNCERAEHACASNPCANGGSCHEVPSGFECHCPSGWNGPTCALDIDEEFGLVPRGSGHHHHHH

Human Jag2-DSL-EGF1-4 [4] = target: T4, Human Jag2-DSL-EGF1-4 (human, UniProt Q9Y219 24-388); experiment: ELISA on human Jagged2 (Jag-2 bars), OD450 nm
T4 construct: also called human Jagged2; hJag2
T4 sequence: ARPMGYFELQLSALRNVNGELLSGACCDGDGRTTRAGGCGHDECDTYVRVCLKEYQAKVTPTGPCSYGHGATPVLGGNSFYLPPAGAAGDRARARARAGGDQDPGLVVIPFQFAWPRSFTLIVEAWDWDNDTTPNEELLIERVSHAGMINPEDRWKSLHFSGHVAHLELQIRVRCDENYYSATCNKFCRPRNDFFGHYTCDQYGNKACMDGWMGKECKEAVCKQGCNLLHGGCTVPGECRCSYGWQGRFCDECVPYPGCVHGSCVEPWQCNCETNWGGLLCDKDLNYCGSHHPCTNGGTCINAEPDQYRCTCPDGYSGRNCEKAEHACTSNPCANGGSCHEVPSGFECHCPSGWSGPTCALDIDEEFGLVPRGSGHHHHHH

[5] = target: T5, purified Jag1 extracellular domain protein fragment (Homo sapiens (Human), UniProt P78504 34-377); experiment: BIAcore (SPR), purified Jag1 extracellular domain fragment
T5 construct: not shown: C-terminal TEV protease cleavage site and 6-His tag of the human Jag1-DSL-EGF1-4 antigen

Murine Jag2-DSL-EGF1-4 [6] = target: T3, Murine Jag2-DSL-EGF1-4; experiment: SPR (BIAcore-3000), IgG captured, Jag DSL-EGF1-4 as analyte, 25 C
Human Jag2-DSL-EGF1-4 [7] = target: T4, Human Jag2-DSL-EGF1-4; experiment: as above
Murine Jag1-DSL-EGF1-4 [8] = target: T1, Murine Jag1-DSL-EGF1-4; experiment: SPR (BIAcore-3000), IgG captured, Jag DSL-EGF1-4 as analyte
Human Jag1-DSL-EGF1-4 [9] = target: T2, Human Jag1-DSL-EGF1-4; experiment: ELISA on human Jagged1 (Jag-1 bars), OD450 nm
Murine Jag2-DSL-EGF1-4 [10] = target: T3, Murine Jag2-DSL-EGF1-4; experiment: ELISA, Notch ligand coated at 1 ug/ml, serial 3-fold dilutions of IgG, anti-human Fab-peroxidase, A630 [left panel, A-2]
[11] = target: T6, human Delta-like 1 (DSL-EGF1-4 fragment) (human, UniProt O00548 18-368, limits assumed); experiment: as above
T6 construct: domain: DSL-EGF1-4; Recombinant purified Notch ligand; also called human DLL1; hDLL1
T6 sequence (looked up): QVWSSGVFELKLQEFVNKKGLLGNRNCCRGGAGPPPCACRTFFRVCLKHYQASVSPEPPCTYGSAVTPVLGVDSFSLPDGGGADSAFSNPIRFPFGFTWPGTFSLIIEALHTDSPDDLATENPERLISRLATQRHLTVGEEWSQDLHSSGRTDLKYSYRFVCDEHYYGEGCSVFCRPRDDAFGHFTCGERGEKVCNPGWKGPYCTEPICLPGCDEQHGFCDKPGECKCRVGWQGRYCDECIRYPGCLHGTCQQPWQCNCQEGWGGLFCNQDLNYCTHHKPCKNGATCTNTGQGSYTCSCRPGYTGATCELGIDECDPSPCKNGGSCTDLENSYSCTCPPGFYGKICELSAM

[12] = target: T7, murine Delta-like 1 (DSL-EGF1-4 fragment) (mouse, UniProt Q61483 18-367, limits assumed); experiment: as above
T7 construct: domain: DSL-EGF1-4; Recombinant purified Notch ligand; also called murine DLL1; mouse DLL1

[13] = target: T8, murine Delta-like 4 (DSL-EGF1-4 fragment) (mouse, UniProt Q9JI71 27-366, limits assumed); experiment: as above
T8 construct: domain: DSL-EGF1-4; Recombinant purified Notch ligand; also called murine DLL4; mouse DLL4

[14] = target: T9, human Delta-like 4 (DSL-EGF1-4 fragment) (human, UniProt Q9NR61 27-365, limits assumed); experiment: as above
T9 construct: domain: DSL-EGF1-4; Recombinant purified Notch ligand; also called human DLL4; hDLL4

Human Jag2-DSL-EGF1-4 [15] = target: T4, Human Jag2-DSL-EGF1-4; experiment: as above
Murine Jag1-DSL-EGF1-4 [16] = target: T1, Murine Jag1-DSL-EGF1-4; experiment: SPR (BIAcore T200), IgG1 captured, ligand as analyte, 25 C
Human Jag1-DSL-EGF1-4 [17] = target: T2, Human Jag1-DSL-EGF1-4; experiment: as above
[18] = target: T8, murine Delta-like 4 (DSL-EGF1-4 …); experiment: SPR (BIAcore T200), IgG1 captured, ligand as analyte
[19] = target: T9, human Delta-like 4 (DSL-EGF1-4 fragment); experiment: as above
[20] = target: T6, human Delta-like 1 (DSL-EGF1-4 fragment); experiment: SPR (BIAcore T200), IgG1 captured, ligand as analyte; value marked * (asterisk not explained)
[21] = target: T7, murine Delta-like 1 (DSL-EGF1-4 …); experiment: as above
Murine Jag2-DSL-EGF1-4 [22] = target: T3, Murine Jag2-DSL-EGF1-4; experiment: SPR (BIAcore T200), IgG1 captured, ligand as analyte, 25 C
Human Jag2-DSL-EGF1-4 [23] = target: T4, Human Jag2-DSL-EGF1-4; experiment: as above

- binding result (Murine Jag1-DSL-EGF1-4 [1]): binds
- Kd (Human Jag1-DSL-EGF1-4 [2]): 94 nM
- koff (Human Jag1-DSL-EGF1-4 [2]): 0.0021 s⁻¹
- kon (Human Jag1-DSL-EGF1-4 [2]): 23000 M⁻¹ s⁻¹
- binding result (Murine Jag2-DSL-EGF1-4 [3]): no binding (tested: 0.5 µM)
- binding result (Human Jag2-DSL-EGF1-4 [4]): no binding
B1: Antibody A (antibody, human IgG1, V domains shown)
VH: EVQLVESGGGLVQPGGSLRLSCAASGFTFSNYGIHWVRQAPGKGLEWVGWITPDGGYTDYADSVKGRFTISADTSKNTAYLQMNSLRAEDTAVYYCARAGSWFAYWGQGTLVTVSS
VL: DIQMTQSPSSLSASVGDRVTITCRASQDVSTAVAWYQQKPGKAPKLLIYSASFLYSGVPSRFSGSGSGTDFTLTISSLQPEDFATYYCQQSYTTPPTFGQGTKVEIK
notes: Only the variable domains are tied to the tested antibody; also called parent antibody A; anti-Jagged1 antibody A

- Kd [5]: 0.799 nM
B2: Antibody A-1 (antibody, human IgG1, kappa, V domains shown)
VH: EVQLVESGGGLVQPGGSLRLSCAASGFTFSNYGIHWVRQAPGKGLEWVGWITPDGGYTDYADSVKGRFTISADTSKNTAYLQMNSLRAEDTAVYYCARAGSLFAYWGQGTLVTVSS
VL: DIQMTQSPSSLSASVGDRVTITCRASQDVSTAVAWYQQKPGKAPKLLIYSASFLYSGVPSRFSGSGSGTDFTLTISSLQPEDFATYYCQQYYTTATTFGQGTKVEIKR

- Kd [5]: 4.62 nM
- koff [5]: 0.000675 s⁻¹
- kon [5]: 146000 M⁻¹ s⁻¹
B3: Antibody A-1 S101A (antibody, V domains shown)
VH: EVQLVESGGGLVQPGGSLRLSCAASGFTFSNYGIHWVRQAPGKGLEWVGWITPDGGYTDYADSVKGRFTISADTSKNTAYLQMNSLRAEDTAVYYCARAGALFAYWGQGTLVTVSS
VL: DIQMTQSPSSLSASVGDRVTITCRASQDVSTAVAWYQQKPGKAPKLLIYSASFLYSGVPSRFSGSGSGTDFTLTISSLQPEDFATYYCQQYYTTATTFGQGTKVEIK
notes: Mutant of A-1 expressed in mammalian cells; also called A-1 G100, S101A

- Kd (Murine Jag2-DSL-EGF1-4 [6]): 1 nM
- koff (Murine Jag2-DSL-EGF1-4 [6]): 0.0026 s⁻¹
- kon (Murine Jag2-DSL-EGF1-4 [6]): 2.5e+06 M⁻¹ s⁻¹
- Kd (Human Jag2-DSL-EGF1-4 [7]): 1 nM
- koff (Human Jag2-DSL-EGF1-4 [7]): 0.0026 s⁻¹
- kon (Human Jag2-DSL-EGF1-4 [7]): 2.5e+06 M⁻¹ s⁻¹
- binding result (Murine Jag1-DSL-EGF1-4 [8]): no binding
- binding result (Human Jag1-DSL-EGF1-4 [9]): no binding
B4: Antibody B (antibody, V domains shown)
VH: EVQLVESGGGLVQPGGSLRLSCAASGFTFTSYDIHWVRQAPGKGLEWVGGISPADGDTDYANSVKGRFTISADTSKNTAYLQMNSLRAEDTAVYYCARNDYDVRSVGSGMDYWGQGTLVTVSS
VL: DIQMTQSPSSLSASVGDRVTITCRASQDVSTAVAWYQQKPGKAPKLLIYSASFLYSGVPSRFSGSGSGTDFTLTISSLQPEDFATYYCQQSYTTPPTFGQGTKVEIK
notes: Anti-Jagged2 antibody, human IgG1; also called parental antibody of antibody B-3

- binding result (Murine Jag2-DSL-EGF1-4 [10]): no binding
- binding result [11]: no binding
- binding result [12]: no binding
- binding result [13]: no binding
- binding result [14]: no binding
- binding result (Human Jag2-DSL-EGF1-4 [15]): no binding
- Kd (Human Jag1-DSL-EGF1-4 [2]): 0.3 nM
- koff (Human Jag1-DSL-EGF1-4 [2]): 7.1e-05 s⁻¹
- kon (Human Jag1-DSL-EGF1-4 [2]): 230000 M⁻¹ s⁻¹
- Kd (Murine Jag1-DSL-EGF1-4 [16]): 0.15 nM
- koff (Murine Jag1-DSL-EGF1-4 [16]): 5.77e-05 s⁻¹
- kon (Murine Jag1-DSL-EGF1-4 [16]): 385000 M⁻¹ s⁻¹
- Kd (Human Jag1-DSL-EGF1-4 [17]): 0.382 nM
- koff (Human Jag1-DSL-EGF1-4 [17]): 9.23e-05 s⁻¹
- kon (Human Jag1-DSL-EGF1-4 [17]): 242000 M⁻¹ s⁻¹
B5: Antibody A-2 (antibody, human IgG1, V domains shown)
VH: EVQLVESGGGLVQPGGSLRLSCAASGFTFSNYGIHWVRQAPGKGLEWVGWITGNGGYSDYADSVKGRFTISADTSKNTAYLQMNSLRAEDTAVYYCARAGSWFAYWGQGTLVTVSS
VL: DIQMTQSPSSLSASVGDRVTITCRASQDVSTAVAWYQQKPGKAPKLLIYSASFLYSGVPSRFSGSGSGTDFTLTISSLQPEDFATYYCQQSYTTPPTFGQGTKVEIK
notes: also called anti-Jagged1 antibody A-2

- binding result [18]: no binding
- binding result [19]: no binding
- Kd (Murine Jag2-DSL-EGF1-4 [6]): 0.3 nM
- koff (Murine Jag2-DSL-EGF1-4 [6]): 0.000175 s⁻¹
- kon (Murine Jag2-DSL-EGF1-4 [6]): 580000 M⁻¹ s⁻¹
- Kd [20]: 349 nM
- Kd [21]: 72.3 nM
- Kd (Murine Jag2-DSL-EGF1-4 [22]): 0.0571 nM
- koff (Murine Jag2-DSL-EGF1-4 [22]): 4.4e-05 s⁻¹
- kon (Murine Jag2-DSL-EGF1-4 [22]): 771000 M⁻¹ s⁻¹
- Kd (Human Jag2-DSL-EGF1-4 [23]): 0.041 nM
- koff (Human Jag2-DSL-EGF1-4 [23]): 0.000188 s⁻¹
- kon (Human Jag2-DSL-EGF1-4 [23]): 4.58e+06 M⁻¹ s⁻¹
B6: Antibody B-3 (antibody, human IgG1, V domains shown)
VH: EVQLVESGGGLVQPGGSLRLSCAASGFTFTSYDIHWVRQAPGKGLEWVGGISPADGDTDYANSVKGRFTISADTSKNTAYLQMNSLRAEDTAVYYCARNDYDVRFVGSGMDYWGQGTLVTVSS
VL: DIQMTQSPSSLSASVGDRVTITCRASQDVSTAVAWYQQKPGKAPKLLIYSASFLYSGVPSRFSGSGSGTDFTLTISSLQPEDFATYYCQQSFTAPPTFGQGTKVEIK
notes: also called anti-Jagged2 antibody B-3; anti-Jag2 B-3
